The values that follow come from patent US9422450B2, “Surface coated structures and methods” (ARCH BIOPHYSICS, INC., priority 2009, dated 2016).

The nature of the series: Corrosion resistance (Icorr, Ecorr, corrosion rate, Rp) of coated stainless steel. The class given is physicochemical. The conditions noted are these: pilin conjugates on stainless steel.

Bridges are numbered along the chain shown (N, C = ends). Where no end group is shown, it is not given here.

“E-PAK: pilin peptide conjugated to an E-coil (negatively charged leucine zipper) peptide (DGLWKCTSDQDEQFIPKGCSR; disulfide 6-19; also: conjugated to E-coil peptide)”: the “Corrosion Rate” value (Unmodified 0.0547) is on record as 0.1981 mpy. Further, under “Unmodified 4.2”, the Ecorr amounted to 87.2 mV. This substance returned a Rp (Unmodified 303.141) of 121.722 Ohms/cm^2. This substance yielded an Icorr (Unmodified 802) of 1940 nAmps.
